Experiment: soluble on expression in E. coli; label from the status in PepcDB or PDB records

Sequence | soluble on expression in E. coli
MSEDKDMKNRNAMTIKRFVDVEEDGEHGGSGEFAELFQESIKQHRVGEVVTGKVVHISNEFVLVDIGYKSEGCIAIDEFLDEDGNLTVKVGDEVKALFERKENQKGYAVLSRRKAERLAVWDVIDEAGGEGGIIEGKITGKVKGGLTVDIGVQAFLPASQVDLRPGGNLDKYIGTTDRFKVLKLNKKRGNIVLSRRVLMEEERESSRKETLATLAEGQVREGVVKNITDYGAFVDIGGVDGLLHVTDMSWGRLGHPSEILKPGDKLNVKVLKYDQEKGKISLGLKQVTPDPWVSVEQKYNQGDRVKGKVVSLTDYGAFIALEDGVEGLVHVSEMSWTRRLRHPSEILTVGDEVETVVLGVDMGNRRISLGLKQVQVNPWTQLEEKYPVGTKLEGQIKSITDFGVFIGIEEGIDGLVHVSDISWTKRIKHPGEVFTKGQTVQAVVLNIDPENERLSLGIKQLLLDPWSEIPVKYRPGTRVHGKVTSVTDFGVFLEIEEGIEGLIHVSELSREKVASPKEFTNVGDELDAVVLSVDESEKKIALSIKSLQMAAEKAEIESYMQAQGEATSNLGELLKVGFRKNGDGNDLEHHHHHH | not soluble
MAHHHHHHMVAPSGRTGRRTTRRRTLHTGAGTTVTQRSARLPSRLRRVSTLKTSRAPSCLSTSARLRLFRRRRTCWRCWSERASPYQSSATTPSSPPETAVCAWCRTALRTSSSRAPPWRYLACPSSPTAACAMPARAMWSLSSTTRTTARFASRPPTAICRTATTAPTSRATARTRKPSRTSTLTPRHASCTAASTARAASASTSTRRTSTSARLAAAGARFPPFMNWRRRTTICPFLSYAPSGSCTWAMQTRTTTCASSRLRGQRR | soluble
HMSICTSEEWQGLMQFTLPVRLCKEIELFHFDIGPFENMWPGIFVYMVHRSCGTSCFELEKLCRFIMSVKKNYRRVPYHNWKHAVTVAHCMYAILQNNHTLFTDLERKGLLIACLCHDLDHRGFSNSYLQKFDHPLAALYSTSTMEQHHFSQTVSILQLEGHNIFSTLSSSEYEQVLEIIRKAIIATDLALYFGNRKQLEEMYQTGSLNLNNQSHRDRVIGLMMTACDLCSVTKLWPVTKLTANDIYAEFWAEGDEMKKLGIQPIPMMDRDKKDEVPQGQLGFYNAVAIPCYTTLTQILPPTEPLLKACRDNLSQWEKVIRGEETATWISSPSVAQKAAASED | soluble
MSSTRTASGRTSGRNGTWRNWGGNVSARPAREVTPASVDELADAVRRAAEDGQRVKAVGTGHSFTSIAATDGVLIRPQLLTGIRSIDRDAMTVTVEAGTPLKRLNMALAREGLSLTNMGDIMEQTVSGATSTGTHGTGRDSASIAAQIRGLELVTADGSVLTCSADENPEVFAAARIGLGALGVVTAITFAVEPVFLLTAREEPMPFDRVLADFDALWSENEHFEFYWFPHTNSTNTKRNNRSAGPERPVGRFQGWLDDEFLSNGLFQAVNWVGRAAPATIPSIARISSRALSARTYTDTPYKVFTSPRRVRFVEMEYAVPREAVVEVLRELRTMVDRSRLRISFPVEVRTAPADDITLSTASARDSAYIAVHMFRGTPYQAYFTAAERIFTAHEGRPHWGKVHTRDAGYFSRVYPRFGEFTALRDRLDPDRLFQNDYLRRVLGPLEHHHHHH | soluble
MGSDKIHHHHHHMTKQSKTQIRICFVGDSFVNGTGDPECLGWTGRVCVNANKKGYDVTYYNLGIRRDTSSDIAKRWLQEVSLRLHKEYNSLVVFSFGLNDTTLENGKPRVSIAETIKNTREILTQAKKLYPVLMISPAPYIEQQDPGRRRRTIDLSQQLALVCQDLDVPYLDVFPLLEKPSVWLHEAKANDGVHPQAGGYTEFARIVENWDAWLNWFR | soluble
GTTDAQGFATVEIKQSQGVGLSTPLNIVPVNSYIPNTVNYNVIFTTLTSPDAVGAQMWGHMDETITVDALTFARPRLAAEVFSPDGTLTENNEVWSRVSQANASSTSKGGCGANMLPRRSQLSALYDANNGNGVQTVHGWPTQRQPYWSSSPADQVPHYYTIALNDGARTVGGSTAVYVSCLTTANNP | not soluble
MGSDKIHHHHHHMMSKYPLLGMTLIELQSLVKRLGMPGFAAKQIASWLYDKKVTSIDEMTNLSLKYRELLKQNYEVGAEAPVEEMRSVDGTVKYLYPVGENHFVESVYIPDDERATLCISSQVGCKMNCKFCMTGKQGYSANLTAHQIINQIHSLPERDKLTNVVMMGMGEPLDNLEEVLKALDILTGSYGYAWSPKRITVSTVGLRKGLRRFIEESDCHLAISLHSPVTAQRAELMPAEKAFSITEMVELLKNYDFSKQRRLSFEYIVFKGLNDSQVYAKELLKLLRGLDCRMNLIRFHSIPGVALEGADMDTMTRFRDYLTTHGLFTTIRASRGEDIFAACGMLSTAKQEENNKS | not soluble
MGSDKIHHHHHHMMNDRDERWDRIAGKLDTLLDRFDRFLDGHIPPPPPDGRLFERHLAFRWRRTGEGGAFLPVEHPHLPDLDDLMGIDLVRDELVRNTGQFVVGYPANNVLLWGERGTGKSTCVKGLLRRFSEEGLRLVEVLRDDLCTLPAIIAPLRKMPQRFILFCDDLSFGEGEGGYRELKVLLEGGIEERPSNILFYATSNRRHLLPERMEDNLGGEIHPEEAVSEKLSLADRFGLNLSFYSFDQDTYLAIVARYAEKFSLPMGGEALRREALQWAIFKGSRSGRSARQFVDDLAGRLRVALPAEK | not soluble
MGSDKIHHHHHHMSIFISGSLAYDRIMNFPGKFSDHILPDKIHILNVCFLIDRLEEKRGGTAGNIAYSLALLGEKPTILATVGKDFDRYEEVLTGLGLPQDGIRKMDDQFTAGAYITTDQSDNQITGFNPAAMSHPCGYQFNGVTPENDLAIVSPGNLQDMVELPRKFRSMGMRYIFDPGQQITALTGDSMLECINGAHMLVSNDYELEMIMKATGRTKAELLTMTDYIITTLGENGSRIDNGEPVMVGIARPRQVLDPTGAGDAFRAGLLKGLTDGLDVAGAAKIGATCASFCVEHYGTQEHTFTPEEFKARHQAAFGA | not soluble
SSLLDGLASSPRAPLQSSKARMKKLPKKSQNEKYRLKYLRLRKAAKATVFENAAICDEIARLEEKFLKAKEERRYLLKKLLQLQALTEGEVQAAAPSHSSSLPLTYGVASSVGTIQGAGPISGPSTGAEEPFGKKTKKEKKEKGKENNKLEVLKKTCKKKKMAGGARKLVQPIALDPSGRPVFPIGLGGLTVYSLGEIITDRPGFHDESAIYPVGYCSTRIYASMKCPDQKCLYTCQIKDGGVQPQFEIVPEDDPQNAIVSSSADACHAELLRTISTTMGKLMPNLLPAGADFFGFSHPAIHNLIQSCPGARKCINYQWVKFDVCKPGDGQLPEGLPENDAAMSFEAFQRQIFDEDQNDPLLPGSLDLPELQPAAFVSSYQPMYLTHEPLVDTHLQHLKSPSQGSPIQSSD | soluble
MTITYSGDELFLQLRGDLLNYLCRKLSKDEAADILQEIYLRWRRQDISSIENPRAFLFTVALNLIRDQARRQAHVQTYANTMQHLFQDKPADYDLAQHCDERRQIEYLQQALDQLPENVRHAFLLFRLDGLTFAEIALQMGISSKSVARYIQHASEHCLTALAQYR | not soluble
MRKLKYQRDFFPLLHLNYGSNWRCGMDRIAYFKSLLEKNPDNPMVHYSLGLEYFKVKDYENAIKHLERYLELQEDEGAAYRTLAKCYEELGEFQKAIEVLEEGIRQAMKYNHPSMAQEYQQWIEELKGMAF | soluble
MFQLSVQDIHPGEQAGNKEEAIRQIAAALAQAGNVAGGYVDGMLAREQQTSTFLGNGIAIPHGTTDTRDQVLKTGVQVFQFPQGVTWGEGQVAYVAIGIAASSDEHLGLLRQLTHVLSDDSVAEQLKSATTAEELRALLMGEKQSEQLKLDNETMTLDVIASSLVTLQALNAARLKEAGAVDAAFVAKTINDSPMNLGQGIWLNDSAEGNLRSAVAVSRATQAFDVEGEKAALLVTVAMNDEQPIAVLKRLGDLLLNNKADRLLSADAATLLALLTSDDALTDDVLSAEFVVRNEHGLHARPGTMLVNTIKQFNSEITVTNLDGTGKPANGRSLMKVVALGVKKGHRLRFTAQGEDAEQALKAIGDAIAAGLGEGA | not soluble
YIKYFNDKTIDEELERDKRVTWIVEFFANWSNDCQSFAPIYADLSLKYNCTGLNFGKVDVGRYTDVSTRYKVSTSPLTKQLPTLILFQGGKEAMRRPQIDKKGRAVSWTFSEENVIREFNLNEL | soluble
